Test results published in the Immune Epitope Database (IEDB).

Assays:
HLA-A*23:01 = experiment: IEDB peptide-MHC binding, purified MHC/competitive/radioactivity; filed as Kd, often an IC50 or EC50 that approximates it; ≥ and ≤ were set here for values at or beyond the usual limits of such assays
HLA-A*24:02 = experiment: as above
HLA-B*15:01 [1] = experiment: as above
HLA-A*26:01 [2] = experiment: IEDB peptide-MHC binding, purified MHC/direct/fluorescence; filed as Kd, often an IC50 or EC50 that approximates it; ≥ and ≤ were set here for values at or beyond the usual limits of such assays
HLA-B*15:01 [3] = experiment: IEDB peptide-MHC binding, purified MHC/competitive/fluorescence; filed as Kd, often an IC50 or EC50 that approximates it; ≥ and ≤ were set here for values at or beyond the usual limits of such assays
HLA-B*08:01 [4] = experiment: IEDB peptide-MHC binding, purified MHC/direct/fluorescence; filed as Kd, often an IC50 or EC50 that approximates it; ≥ and ≤ were set here for values at or beyond the usual limits of such assays
HLA-A*02:01 [5] = experiment: IEDB peptide-MHC binding, purified MHC/competitive/fluorescence; filed as Kd, often an IC50 or EC50 that approximates it; ≥ and ≤ were set here for values at or beyond the usual limits of such assays
HLA-A*69:01 = experiment: IEDB peptide-MHC binding, purified MHC/direct/fluorescence; filed as Kd, often an IC50 or EC50 that approximates it; ≥ and ≤ were set here for values at or beyond the usual limits of such assays
HLA-B*15:01 [6] = experiment: as above
HLA-B*40:01 = experiment: as above
HLA-B*46:01 = experiment: IEDB peptide-MHC binding, purified MHC/competitive/fluorescence; filed as Kd, often an IC50 or EC50 that approximates it; ≥ and ≤ were set here for values at or beyond the usual limits of such assays; conditions: source organism: Haemophilus influenzae R3021
HLA-B*08:01 [7] = experiment: IEDB peptide-MHC binding, purified MHC/competitive/radioactivity; filed as Kd, often an IC50 or EC50 that approximates it; ≥ and ≤ were set here for values at or beyond the usual limits of such assays; conditions: source organism: Vaccinia virus WR
HLA-A*01:01 [8] = experiment: as above; conditions: source organism: Dengue virus 2 Jamaica/1409/1983
HLA-A*26:01 [9] = experiment: as above; conditions: source organism: Dengue virus 2 Jamaica/1409/1983
HLA-A*30:02 = experiment: as above; conditions: source organism: Dengue virus 2 Jamaica/1409/1983
HLA-B*53:01 = experiment: as above
HLA-B*07:02 = experiment: as above
HLA-B*51:01 [10] = experiment: as above
HLA-A*24:03 = experiment: IEDB peptide-MHC binding, purified MHC/direct/fluorescence; filed as Kd, often an IC50 or EC50 that approximates it; ≥ and ≤ were set here for values at or beyond the usual limits of such assays
HLA-B*35:01 = experiment: IEDB peptide-MHC binding, purified MHC/competitive/radioactivity; filed as Kd, often an IC50 or EC50 that approximates it; ≥ and ≤ were set here for values at or beyond the usual limits of such assays
HLA-A*30:01 = experiment: as above; conditions: source organism: Vaccinia virus WR
HLA-B*57:01 = experiment: IEDB peptide-MHC binding, purified MHC/direct/fluorescence; filed as Kd, often an IC50 or EC50 that approximates it; ≥ and ≤ were set here for values at or beyond the usual limits of such assays; conditions: source organism: Campylobacter jejuni
HLA-B*58:01 = experiment: as above
HLA-B*51:01 [11] = experiment: IEDB peptide-MHC binding, purified MHC/competitive/fluorescence; filed as Kd, often an IC50 or EC50 that approximates it; ≥ and ≤ were set here for values at or beyond the usual limits of such assays; conditions: source organism: Listeria monocytogenes FSL J1-194
HLA-A*29:02 = experiment: IEDB peptide-MHC binding, purified MHC/competitive/radioactivity; filed as Kd, often an IC50 or EC50 that approximates it; ≥ and ≤ were set here for values at or beyond the usual limits of such assays; conditions: source organism: Mammarenavirus machupoense
HLA-A*01:01 [12] = experiment: IEDB peptide-MHC binding, purified MHC/direct/fluorescence; filed as Kd, often an IC50 or EC50 that approximates it; ≥ and ≤ were set here for values at or beyond the usual limits of such assays; conditions: source organism: Cryptosporidium parvum
HLA-A*02:01 [13] = experiment: as above; conditions: source organism: Cryptosporidium parvum
HLA-A*03:01 = experiment: as above; conditions: source organism: Cryptosporidium parvum
HLA-A*11:01 = experiment: as above; conditions: source organism: Cryptosporidium parvum
HLA-A*31:01 = experiment: as above; conditions: source organism: Cryptosporidium parvum
HLA-B*27:05 = experiment: as above; conditions: source organism: Cryptosporidium parvum
HLA-B*44:02 = experiment: as above; conditions: source organism: Cryptosporidium parvum
HLA-A*32:01 = experiment: IEDB peptide-MHC binding, purified MHC/competitive/radioactivity; filed as Kd, often an IC50 or EC50 that approximates it; ≥ and ≤ were set here for values at or beyond the usual limits of such assays; conditions: source organism: Vaccinia virus WR
HLA-A*02:02 = experiment: as above; conditions: source organism: Vaccinia virus WR
HLA-A*02:03 = experiment: as above; conditions: source organism: Vaccinia virus WR
HLA-A*02:06 = experiment: as above; conditions: source organism: Vaccinia virus WR
HLA-B*39:01 = experiment: IEDB peptide-MHC binding, purified MHC/competitive/fluorescence; filed as Kd, often an IC50 or EC50 that approximates it; ≥ and ≤ were set here for values at or beyond the usual limits of such assays; conditions: source organism: Vibrio parahaemolyticus AQ3810
[14] = source organism: Dengue virus 1 Brazil/97-11/1997
[15] = source organism: Vaccinia virus WR
[16] = source organism: Giardia lamblia ATCC 50803
[17] = source organism: Haemophilus influenzae
[18] = source organism: Dengue virus 2 Jamaica/1409/1983
[19] = source organism: Dengue virus 4 Philippines/H241/1956
[20] = source organism: Escherichia coli O139:H28 str. E24377A
[21] = source organism: Mammarenavirus machupoense
[22] = source organism: Cryptosporidium parvum

AMVLSIVSLF
Kd (HLA-A*23:01; [14]): 15.1 nM | Kd (HLA-A*24:02; [14]): 580 nM | Kd (HLA-B*15:01 [1]; [14]): 4.66 nM

ASITAFKSM
Kd (HLA-B*15:01 [1]; [15]): 25 nM

ELVDTTEMY
Kd (HLA-A*26:01 [2]; source organism: Mycobacterium tuberculosis variant bovis): 207 nM | Kd (HLA-B*15:01 [3]; source organism: Mycobacterium tuberculosis H37Rv): 324 nM

EMKLRQKQL
Kd (HLA-B*08:01 [4]; [16]): 38 nM | Kd (HLA-A*02:01 [5]; [16]): ≥ 20000 nM

EQFPNATAF
Kd (HLA-A*69:01; [17]): 9840 nM | Kd (HLA-B*15:01 [6]; [17]): 42.3 nM | Kd (HLA-B*40:01; [17]): 2970 nM | Kd (HLA-B*46:01): 2370 nM

FIAKHFLEL
Kd (HLA-B*08:01 [7]): 1.3 nM | Kd (HLA-B*15:01 [1]; [15]): 6500 nM

FLYSFFLCI
Kd (HLA-B*08:01 [7]): 5810 nM | Kd (HLA-B*15:01 [1]; [15]): 1170 nM

FTIMAAILAY
Kd (HLA-A*01:01 [8]): 973 nM | Kd (HLA-A*26:01 [9]): 55 nM | Kd (HLA-A*30:02): 2170 nM | Kd (HLA-B*15:01 [1]; [18]): 2.18 nM | Kd (HLA-B*53:01; [18]): 3450 nM

GINKRSTPF
Kd (HLA-B*15:01 [1]; source organism: Vaccinia virus Copenhagen): 0.723 nM

GPMVAGGLLL
Kd (HLA-B*07:02; [19]): 36.3 nM | Kd (HLA-B*51:01 [10]; [19]): ≥ 69600 nM

GYCLTRWML
Kd (HLA-A*24:03; source organism: Mammarenavirus lassaense): 39.5 nM

GYQHKTLAI
Kd (HLA-A*24:03; source organism: Vibrio vulnificus): 6.5 nM

IAMTDTTPF
Kd (HLA-B*15:01 [1]; [14]): 4.25 nM | Kd (HLA-B*35:01; [14]): 1.18 nM | Kd (HLA-B*53:01; [14]): 172 nM

IANQAAVLM
Kd (HLA-B*35:01; [19]): 75.1 nM

ILWILDRLF
Kd (HLA-B*15:01 [3]; source organism: Influenza A virus (A/Memphis/1/1978(H1N1))): ≥ 20000 nM

KAAKRISHG
Kd (HLA-B*15:01 [1]; [15]): 7690 nM

KAFKKFPSG
Kd (HLA-A*30:01): 247 nM | Kd (HLA-B*15:01 [1]; [15]): 2990 nM

KLNQLSRKEF
Kd (HLA-B*15:01 [1]; source organism: Dengue virus 3 Martinique/1243/1999): 70.6 nM

KMSGKTPAV
Kd (HLA-A*02:01 [5]; [20]): 1.7 nM | Kd (HLA-B*15:01 [3]; [20]): 1160 nM

KNNNEFAFF
Kd (HLA-B*15:01 [1]; [15]): 1330 nM

KQEHETSWHY
Kd (HLA-A*30:02): ≥ 69700 nM | Kd (HLA-B*15:01 [1]; [18]): 125 nM

KSNKIRGRM
Kd (HLA-B*57:01): 988 nM | Kd (HLA-B*58:01; source organism: Campylobacter jejuni): 192 nM

LAYTIGTTHF
Kd (HLA-A*24:02; [18]): 230 nM | Kd (HLA-B*35:01; [18]): 1410 nM

LIKVLVEHG
Kd (HLA-B*15:01 [1]; [15]): 621 nM

LKYAPFFQV
Kd (HLA-B*51:01 [11]): ≥ 20000 nM

LLFVCISYY
Kd (HLA-B*15:01 [1]; [15]): ≥ 78100 nM

LLSPVRVPNY
Kd (HLA-A*01:01 [8]): 15100 nM | Kd (HLA-A*30:02): 306 nM | Kd (HLA-B*15:01 [1]; [18]): 2.99 nM

LMRRGDLPVW
Kd (HLA-B*15:01 [1]; [18]): 159 nM

LPGADTQGSN
Kd (HLA-B*35:01; [18]): 2840 nM

LVSLLGSAL
Kd (HLA-B*07:02; [19]): 44.3 nM

MATFKMRPM
Kd (HLA-B*07:02; [14]): 158 nM

MKLVMAFIAF
Kd (HLA-B*35:01; [14]): 1830 nM

NPNMTDKTPV
Kd (HLA-B*07:02; [19]): 118 nM

PYENLLYKL
Kd (HLA-A*24:03; source organism: Mammarenavirus paranaense): 785 nM | Kd (HLA-A*23:01; [21]): 81.5 nM | Kd (HLA-A*24:02; [21]): 521 nM | Kd (HLA-A*29:02): 2340 nM

QLNQLSKSEF
Kd (HLA-B*15:01 [1]; [14]): 73.1 nM

QPHWIAASII
Kd (HLA-B*07:02; [18]): 47.5 nM | Kd (HLA-B*51:01 [10]; [18]): 468 nM

RIRNKFMFI
Kd (HLA-A*30:01): 0.0693 nM | Kd (HLA-B*08:01 [7]): 1.58 nM | Kd (HLA-B*15:01 [1]; [15]): 766 nM

RLLRMNNEN
Kd (HLA-A*01:01 [12]): ≥ 20000 nM | Kd (HLA-A*02:01 [13]): ≥ 20000 nM | Kd (HLA-A*03:01): ≥ 20000 nM | Kd (HLA-A*11:01): ≥ 20000 nM | Kd (HLA-A*26:01 [2]; [22]): ≥ 20000 nM | Kd (HLA-A*31:01): ≥ 20000 nM | Kd (HLA-A*69:01; [22]): ≥ 20000 nM | Kd (HLA-B*08:01 [4]; [22]): ≥ 20000 nM | Kd (HLA-B*15:01 [6]; [22]): ≥ 20000 nM | Kd (HLA-B*27:05): ≥ 20000 nM | Kd (HLA-B*40:01; [22]): ≥ 20000 nM | Kd (HLA-B*44:02): ≥ 20000 nM | Kd (HLA-B*58:01; [22]): ≥ 20000 nM

RPVKEKEENL
Kd (HLA-B*07:02; [14]): 761 nM

SLCKLNNVF
Kd (HLA-A*32:01): 927 nM | Kd (HLA-B*15:01 [1]; [15]): 16 nM

SPAAAQKAT
Kd (HLA-B*07:02; [19]): 14.3 nM

SPAAAQKATL
Kd (HLA-B*07:02; [19]): 3.95 nM

SPIINRKGKV
Kd (HLA-B*07:02; [19]): 248 nM | Kd (HLA-B*51:01 [10]; [19]): ≥ 69600 nM

SPNPTIEAGR
Kd (HLA-B*07:02; [18]): 1400 nM

SVIFYFISI
Kd (HLA-A*02:02): 155 nM | Kd (HLA-A*02:03): 75 nM | Kd (HLA-A*02:06): 0.169 nM | Kd (HLA-B*15:01 [1]; [15]): 335 nM

THPERTLRL
Kd (HLA-B*39:01): 2500 nM

YICILINHG
Kd (HLA-B*15:01 [1]; [15]): 813 nM

YPKTKLTDWD
Kd (HLA-B*35:01; [19]): 1310 nM
